In the supplement of paper PMC10567573:

B1: FAM50A (parent)
chain: KKREKQREQMEQMKQRIAEENIMK
B2: RTN2 (parent)
chain: SERPLEDLRLRLDHLGWVARGTGS
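Further: lentivirally expressed fusions sorted by FACS into six bins by GFP to DsRed ratio, PSI derived from sequencing read proportions per bin multiplied by bin number.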

Variants of: B1
Assay: protein stability index of a GFP-peptide fusion (GPS, HEK-293T) (PSI 1-6); higher = more stable
Conditions: c terminus: a fixed tail appended
With FKREKQREQMEQMKQRIAEENIMK [K1F] the protein stability index was 4.22.
With EKREKQREQMEQMKQRIAEENIMK [K1E] the protein stability index was 5.1.
Work on DKREKQREQMEQMKQRIAEENIMK [K1D] yielded a protein stability index of 4.87.
AKREKQREQMEQMKQRIAEENIMK [K1A] gave a protein stability index of 4.71.
Work on CKREKQREQMEQMKQRIAEENIMK [K1C] yielded a protein stability index of 4.67.

Variants of: B2
Assay: as above
Conditions: c terminus: a fixed tail appended
For SERPLEDYRLRLDHLGWVARGTGS [L8Y], the protein stability index was 2.35.
With SERPLEDVRLRLDHLGWVARGTGS [L8V] the protein stability index was 1.64.
SERPLEDWRLRLDHLGWVARGTGS [L8W] showed a protein stability index of 1.87.
Work on SERPLEDQRLRLDHLGWVARGTGS [L8Q] yielded a protein stability index of 1.47.
SERPLEDLRLRLDHLGMVARGTGS [W17M] gave a protein stability index of 3.49.
In the case of SERPLEDLRLRLDHLGEVARGTGS [W17E], the protein stability index is reported as 4.11.
Work on SERPLEDLRLRLDHLGGVARGTGS [W17G] yielded a protein stability index of 4.08.
SERPLEDLRLRLDHLGHVARGTGS [W17H] gave a protein stability index of 3.9.
Work on SERPLEDLRLRLDHLGYVARGTGS [W17Y] yielded a protein stability index of 3.48.
With SERPLEDLRLRLDHLGNVARGTGS [W17N] the protein stability index was 4.65.
Variant SERPLEDLRLRLDHLGQVARGTGS [W17Q] has a protein stability index of 4.42.
With SERPLEDLRLRLDHLGAVARGTGS [W17A] the protein stability index was 4.49.
SERPLEDLRLRLDHLGWVTRGTGS [A19T] gave a protein stability index of 3.5.
Work on SERPLEDLRLRLDHLGWVPRGTGS [A19P] yielded a protein stability index of 3.78.
With SERPLEDLRLRLDHLGWVWRGTGS [A19W] the protein stability index was 2.3.
Variant SERPLEDLRLRLDHLGWVKRGTGS [A19K] has a protein stability index of 3.34.
SERPLEDLRLRLDHLGWVDRGTGS [A19D] showed a protein stability index of 3.31.
Variant SERPLEDLRLRLDHLGWVCRGTGS [A19C] has a protein stability index of 2.58.
SERPLEDLRLRLDHLGWVLRGTGS [A19L] showed a protein stability index of 1.97.
For SERPLEDLRLRLDHLGWVHRGTGS [A19H], the protein stability index was 2.9.
Variant SERPLEDLRLRLDHLGWVERGTGS [A19E] has a protein stability index of 2.96.
SERPLEDLRLRLDHLGWVGRGTGS [A19G] showed a protein stability index of 3.39.
With SERPLEDLRLRLDHLGWVNRGTGS [A19N] the protein stability index was 3.34.
Work on SERPLEDLRLRLDHLGWVARMTGS [G21M] yielded a protein stability index of 1.96.
With SERPLEDLRLRLDHLGWVARNTGS [G21N] the protein stability index was 2.83.
In the case of SERPLEDLRLRLDHLGWVARKTGS [G21K], the protein stability index is reported as 3.71.
With SERPLEDLRLRLDHLGWVARQTGS [G21Q] the protein stability index was 2.78.
In the case of SERPLEDLRLRLDHLGWVARTTGS [G21T], the protein stability index is reported as 2.08.
For SERPLEDLRLRLDHLGWVARYTGS [G21Y], the protein stability index was 2.42.
SERPLEDLRLRLDHLGWVARSTGS [G21S] gave a protein stability index of 2.68.
In the case of SERPLEDLRLRLDHLGWVARETGS [G21E], the protein stability index is reported as 2.05.
SERPLEDLRLRLDHLGWVARVTGS [G21V] showed a protein stability index of 2.09.
For SERPLEDLRLRLDHLGWVARWTGS [G21W], the protein stability index was 1.68.
With SERPLEDLRLRLDHLGWVARCTGS [G21C] the protein stability index was 1.6.
In the case of SERPLEDLRLRLDHLGWVARPTGS [G21P], the protein stability index is reported as 2.33.
Variant SERPLEDLRLRLDHLGWVARITGS [G21I] has a protein stability index of 1.61.
Variant SERPLEDLRLRLDWLGWVARGTGS [H14W] has a protein stability index of 1.92.
With SERPLEDLRLRLDTLGWVARGTGS [H14T] the protein stability index was 1.99.
In the case of SERPLEDLRLRLDELGWVARGTGS [H14E], the protein stability index is reported as 2.61.
SERPLEDLRLRLDILGWVARGTGS [H14I] gave a protein stability index of 1.99.
Work on SERPLEDLRLRLDLLGWVARGTGS [H14L] yielded a protein stability index of 1.93.
In the case of SERPLEDLRLRLDPLGWVARGTGS [H14P], the protein stability index is reported as 2.54.
In the case of SERPLEDLRLRLDQLGWVARGTGS [H14Q], the protein stability index is reported as 1.73.
Variant SERPLEDLRLRLDFLGWVARGTGS [H14F] has a protein stability index of 1.51.
For SERPLEDLRLRLDMLGWVARGTGS [H14M], the protein stability index was 2.47.
With SERPLEDLRLRLDRLGWVARGTGS [H14R] the protein stability index was 2.36.
Work on SERPLEDLRLRLDHLGWQARGTGS [V18Q] yielded a protein stability index of 3.02.
Work on SERPLEDLRLRLDHLGWDARGTGS [V18D] yielded a protein stability index of 4.31.
Variant SERPLEDLRLRLDHLGWNARGTGS [V18N] has a protein stability index of 3.81.
In the case of SERPLEDLRLRLDHLGWTARGTGS [V18T], the protein stability index is reported as 2.86.
Work on SERPLEDLRLRLDHLGWHARGTGS [V18H] yielded a protein stability index of 3.31.
In the case of SERPLEDLRLRLDHLGWEARGTGS [V18E], the protein stability index is reported as 4.85.
In the case of SERPLEDLRLRLDHLGWMARGTGS [V18M], the protein stability index is reported as 3.73.
SERPLEDLRLRLDHLGWIARGTGS [V18I] gave a protein stability index of 3.5.
SERPLEDLRLRLDHLGWPARGTGS [V18P] gave a protein stability index of 3.35.
With SERPLEDLRLRLDHLGWWARGTGS [V18W] the protein stability index was 2.8.
SERPLEDLRLRLDHLGWRARGTGS [V18R] gave a protein stability index of 4.14.
For SERPLEDLRLRLDHLGWKARGTGS [V18K], the protein stability index was 3.79.
With SERPLEDLRLRLDHLGWYARGTGS [V18Y] the protein stability index was 2.67.
SERPLEDLRLRRDHLGWVARGTGS [L12R] showed a protein stability index of 2.16.
For SERPLEDLRLRWDHLGWVARGTGS [L12W], the protein stability index was 2.38.
Work on SERPLEDLRLRIDHLGWVARGTGS [L12I] yielded a protein stability index of 2.02.
With SERPLEDLRLRKDHLGWVARGTGS [L12K] the protein stability index was 3.13.
With SERPLEDLRLRADHLGWVARGTGS [L12A] the protein stability index was 2.97.
Work on SERPLEDLRLRYDHLGWVARGTGS [L12Y] yielded a protein stability index of 3.11.
Work on SERPLEDLRLRTDHLGWVARGTGS [L12T] yielded a protein stability index of 3.51.
SERPLEDLRLRPDHLGWVARGTGS [L12P] gave a protein stability index of 2.47.
Variant SERPLEDLRLRLDHCGWVARGTGS [L15C] has a protein stability index of 2.15.
With SERPLEDLRLRLDHIGWVARGTGS [L15I] the protein stability index was 2.28.
Variant SERPLEDLRLRLDHFGWVARGTGS [L15F] has a protein stability index of 2.8.
SERPLEDLRLRLDHEGWVARGTGS [L15E] showed a protein stability index of 2.25.
SERPLEDLRLRLDHAGWVARGTGS [L15A] gave a protein stability index of 2.88.
Work on SERPLEDLRLRLDHWGWVARGTGS [L15W] yielded a protein stability index of 3.5.
In the case of SERPLEDLRLRLDHTGWVARGTGS [L15T], the protein stability index is reported as 2.26.
For SERPLEDLRLRLDHGGWVARGTGS [L15G], the protein stability index was 2.97.
For SERPLEDLRLRLDHMGWVARGTGS [L15M], the protein stability index was 1.89.
For SERPLEDLRLRLDHYGWVARGTGS [L15Y], the protein stability index was 2.59.
With SERPLEDLRLRLDHQGWVARGTGS [L15Q] the protein stability index was 2.1.
For SERPLEDLQLRLDHLGWVARGTGS [R9Q], the protein stability index was 2.26.
With SERPLEDLVLRLDHLGWVARGTGS [R9V] the protein stability index was 3.31.
In the case of SERPLEDLKLRLDHLGWVARGTGS [R9K], the protein stability index is reported as 1.92.
With SERPLEDLDLRLDHLGWVARGTGS [R9D] the protein stability index was 2.31.
Variant SERPLEDLNLRLDHLGWVARGTGS [R9N] has a protein stability index of 2.84.
In the case of SERPLEDLFLRLDHLGWVARGTGS [R9F], the protein stability index is reported as 1.63.
Work on SERPLEDLMLRLDHLGWVARGTGS [R9M] yielded a protein stability index of 1.42.
For SERPLEDLILRLDHLGWVARGTGS [R9I], the protein stability index was 2.17.
In the case of SERPLEDLCLRLDHLGWVARGTGS [R9C], the protein stability index is reported as 3.37.
SERPLEDLHLRLDHLGWVARGTGS [R9H] showed a protein stability index of 2.56.
Work on SERPLEDLELRLDHLGWVARGTGS [R9E] yielded a protein stability index of 2.85.
